This is an account of results in the supplement of paper PMC5998384.

Data set [1] relates to HeLa Kyoto. Put plainly: thermal stability score vs G1/S (z-score of summed log2 fold changes over temperatures); higher = more thermally stable than in G1/S.
Data set [2] has as its system HeLa Kyoto. Put plainly: solubility in G1/S (NP-40 vs SDS abundance) (log2 ratio); higher = more soluble. The following applies: cell cycle stage: G1/S.
For data set [3], the system named is HeLa Kyoto. Put plainly: melting temperature (median over replicates), in situ; higher = more thermally stable.
The test system of data set [4] is HeLa Kyoto. Put plainly: solubility change mitosis vs G1/S (difference of NP-40 vs SDS log2 ratios) (log2 ratio difference); higher = more soluble in mitosis.
Setting [5] is: cell cycle stage: early G1 (4.5 h after nocodazole release).
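Wherever melting temperature (median over replicates), in situ is given: HeLa Kyoto cells synchronized by double thymidine or nocodazole block, proteins quantified by TMT10plex mass spectrometry, three independent biological replicates.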
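Wherever solubility change mitosis vs G1/S (difference of NP-40 vs SDS log2 ratios) is given: synchronized HeLa Kyoto cells (double thymidine block for G1/S, nocodazole release for mitosis), protein amounts in NP-40 versus SDS lysates quantified by mass spectrometry, three biological replicates.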
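Wherever solubility in G1/S (NP-40 vs SDS abundance) is given: HeLa Kyoto cells arrested at G1/S by double thymidine block, proteins quantified by TMT10plex mass spectrometry in mild NP-40 versus SDS extracts, three biological replicates.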
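Wherever thermal stability score vs G1/S (z-score of summed log2 fold changes over temperatures) is given: synchronized HeLa Kyoto cells, proteins quantified by TMT10plex mass spectrometry, three biological replicates, mitosis taken 0.5 h after nocodazole release, G1/S directly after double thymidine block.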

Regarding “MLSRVVLSAAATAAPSLKNAAFLGPGVLQATRTFHTGQPHLVPVPPLPEYGGKVRYGLIPEEFFQFLYPKTGVTGPYVLGTGLILYALSKEIYVISAETFTALSVLGVMVYGIKKYGPFVADFADKLNEQKLAQLEEAKQASIQHIQNAIDTEKSQQALVQKRHYLFDVQRNNIAMALEVTYRERLYRVYKEVKNRLDYHISVQNMMRRKEQEHMINWVEKHVVQSISTQQEKETIAKCIADLKLLAKKAQAQPVM [ATP5F1]”, the figures for the thermal stability score in data set [1] (setting [5]) and in data set [1] (cell cycle stage: mitosis) were -0.0719 and -1.2, respectively. The “solubility in G1/S (log2)” value in data set [2] is 0.102. The melting temperature in data set [3] (cell cycle stage: G1/S) came to 52.8 °C; in data set [3] (cell cycle stage: mitosis), 53.8 °C. In data set [4], the “solubility change mitosis (log2)” value worked out at 0.116.
Take “MLSSTAMYSAPGRDLGMEPHRAAGPLQLRFSPYVFNGGTILAIAGEDFAIVASDTRLSEGFSIHTRDSPKCYKLTDKTVIGCSGFHGDCLTLTKIIEARLKMYKHSNNKAMTTGAIAAMLSTILYSRRFFPYYVYNIIGGLDEEGKGAVYSFDPVGSYQRDSFKAGGSASAMLQPLLDNQVGFKNMQNVEHVPLSLDRAMRLVKDVFISAAERDVYTGDALRICIVTKEGIREETVSLRKD [PSMB1]”: the thermal stability score in data set [1] (setting [5]) is -1.78; in data set [1] (cell cycle stage: mitosis), -1.88. For the same sequence, the “solubility in G1/S (log2)” value in data set [2] was -0.00543. Besides, the melting temperature in data set [3] (cell cycle stage: G1/S) is 57 °C; in data set [3] (cell cycle stage: mitosis), 60.1 °C. Also, the “solubility change mitosis (log2)” value in data set [4] was -0.098.
For “MLVLRSALTRALASRTLAPQMCSSFATGPRQYDGIFYEFRSYYLKPSKMNEFLENFEKNAHLRTAHSELVGYWSVEFGGRMNTVFHIWKYDNFAHRTEVRKALAKDKEWQEQFLIPNLALIDKQESEITYLVPWCKLEKPPKEGVYELATFQMKPGGPALWGDAFKRAVHAHVNLGYTKLVGVFHTEYGALNRVHVLWWNESADSRAAGRHKSHEDPRVVAAVRESVNYLVSQQNMLLIPTSFSPLK [NIPSNAP3A]”, the thermal stability score in data set [1] (setting [5]) is -1.76; in data set [1] (cell cycle stage: mitosis), -2.47. The “solubility in G1/S (log2)” value in data set [2] is -0.107. The melting temperature came out at 56.2 °C in data set [3] (cell cycle stage: G1/S) and 57.7 °C in data set [3] (cell cycle stage: mitosis). Besides, the “solubility change mitosis (log2)” value in data set [4] is -0.224.
“MLVSGRRRLLTVLLQAQKWPFQPSRDMRLVQFRAPHLVGPHLGLETGNGGGVINLNAFDPTLPKTMTQFLEQGEATLSVARRALAAQLPVLPRSEVTFLAPVTRPDKVVCVGMNYVDHCKEQNVPVPKEPIIFSKFASSIVGPYDEVVLPPQSQEVDWEVELAVVIGKKGKHIKATDAMAHVAGFTVAHDVSARDWQMRRNGKQWLLGKTFDTFCPLGPALVTKDSVADPHNLKICCRVNGEVVQSGNTNQMVFKTEDLIAWVSQFVTFYPGDVILTGTPPGVGVFRKPPVFLKKGDEVQCEIEELGVIINKVV [FAHD2A]”: the thermal stability score in data set [1] (setting [5]) was -1.17; in data set [1] (cell cycle stage: mitosis), -2.54. Further, the “solubility in G1/S (log2)” value in data set [2] amounted to 0.253. The melting temperature came to 55.7 °C in data set [3] (cell cycle stage: G1/S) and 56.4 °C in data set [3] (cell cycle stage: mitosis). In data set [4], the “solubility change mitosis (log2)” value was -0.192.
With “MLVVEVANGRSLVWGAEAVQALRERLGVGGRTVGALPRGPRQNSRLGLPLLLMPEEARLLAEIGAVTLVSAPRPDSRHHSLALTSFKRQQEESFQEQSALAAEARETRRQELLEKITEGQAAKKQKLEQASGASSSQEAGSSQAAKEDETSDGQASGEQEEAGPSSSQAGPSNGVAPLPRSALLVQLATARPRPVKARPLDWRVQSKDWPHAGRPAHELRYSIYRDLWERGFFLSAAGKFGGDFLVYPGDPLRFHAHYIAQCWAPEDTIPLQDLVAAGRLGTSVRKTLLLCSPQPDGKVVYTSLQWASLQ [TSEN34]”, the thermal stability score in data set [1] (setting [5]) came to 1.68; in data set [1] (cell cycle stage: mitosis), 2.17. Further, in data set [2], the “solubility in G1/S (log2)” value was determined as 0.191. The figures for the melting temperature in data set [3] (cell cycle stage: G1/S) and in data set [3] (cell cycle stage: mitosis) were 49.3 °C and 49.8 °C, respectively. Besides, in data set [4], the “solubility change mitosis (log2)” value was -0.159.
For “MLWFQGAIPAAIATAKRSGAVFVVFVAGDDEQSTQMAASWEDDKVTEASSNSFVAIKIDTKSEACLQFSQIYPVVCVPSSFFIGDSGIPLEVIAGSVSADELVTRIHKVRQMHLLKSETSVANGSQSESSVSTPSASFEPNNTCENSQSRNAELCEIPPTSDTKSDTATGGESAGHATSSQEPSGCSDQRPAEDLNIRVERLTKKLEERREEKRKEEEQREIKKEIERRKTGKEMLDYKRKQEEELTKRMLEERNREKAEDRAARERIKQQIALDRAERAARFAKTKEEVEAAKAAALLAKQAEMEVKRESYARERSTVARIQFRLPDGSSFTNQFPSDAPLEEARQFAAQTVGNTYGNFSLATMFPRREFTKEDYKKKLLDLELAPSASVVLLPAGRPTASIVHSSSGDIWTLLGTVLYPFLAIWRLISNFLFSNPPPTQTSVRVTSSEPPNPASSSKSEKREPVRKRVLEKRGDDFKKEGKIYRLRTQDDGEDENNTWNGNSTQQM [UBXN4]”, the results for the thermal stability score in data set [1] (setting [5]) and in data set [1] (cell cycle stage: mitosis) were -0.0363 and 0.462, respectively. Besides, in data set [2], the “solubility in G1/S (log2)” value is -0.0609. For the same sequence, the melting temperature came to 51.8 °C in data set [3] (cell cycle stage: G1/S) and 52.1 °C in data set [3] (cell cycle stage: mitosis). Besides, in data set [4], the “solubility change mitosis (log2)” value was -0.108.
